{
  "source": "patent US8722622B2",
  "about": "“FGF21 conjugates and anti-diabetic uses thereof” (COVX Technologies Ireland, Limited, priority 2010, dated 2014)",
  "molecules": {"B1": {"name": "FGF21ΔH: FGF21 with H1 absent (ΔH1), L146, SEQ ID NO:2; control protein (protein, listed as Homo sapiens)", "chain": "PIPDSSPLLQFGGQVRQRYLYTDDAQQTEAHLEIREDGTVGGAADQSPESLLQLKALKPGVIQILGVKTSRFLCQRPDGALYGSLHFDPEACSFRELLLEDGYNVYQSEAHGLPLHLPGNKSPHRDPAPRGPARFLPLPGLPPAPLEPPGILAPQPPDVGSSDPLSMVGPSQGRSPSYAS"}},
  "key": {"[1]": {"parameters": "species or system Swiss-Webster mice", "settings": "mouse, in vivo", "method": "The PK of FGF21 antibody conjugates were examined in mice after IV or SC administration. […] Antibody conjugates concentrations in serum were determined using an ELISA which captured the FGF21 portion of the antibody conjugates through a monoclonal anti-hFGF21 antibody bound to a 96-well plate. FGF21 antibody conjugates bound to the plate were detected through an anti-hFc monoclonal antibody, and concentrations were determined using a standard curve of the PK dosing solution diluted into serum-containing assay buffer. SC bioavailability was calculated as the ratio of the area-under the curve (AUC) of the SC serum concentration profile divided by the AUC of the IV serum concentration profile."}, "[2]": {"test_system": "Differentiated 3T3-L1 adipocytes", "test": "Glucose uptake assay", "format": "cell-based", "settings": "unconjugated protein; n in brackets", "method": "Differentiated 3T3-L1 adipocytes were treated with compounds in the absence of serum for 24 hrs. Cells were then incubated with ^14C-2-deoxyglucose for 1 hr and glucose uptake into the cells was quantitated in Wallac 1450 MicroBeta (Trilux) instrument. Glucose uptake was expressed in counts per min (CPM). EC50 values as measurements of the potency of the compounds were obtained from the dose response curves in the assay."}},
  "data": [
    {"molecule": "B1", "values": [
      {"measurement": "IV T1/2", "setting": "[1]; iv", "result": 24, "unit": "min"},
      {"measurement": "% SC BioAv", "setting": "[1]; sc", "result": 96, "unit": "%"},
      {"measurement": "SC T1/2", "setting": "[1]; sc", "result": 30, "unit": "min"},
      {"measurement": "EC50", "setting": "[2]", "result": 12, "unit": "nM"}
    ]}
  ]
}
